Measurements as given in patent US20210246200A1 (UNIVERSIT T Z RICH, published 2021).
Residue numbers refer to the chain shown, from its start. Names and notes keep the numbering of the source.

B1: Antibody No: 24 (antibody, human IgG1, kappa, N297A, V domains shown)
VH: EVQLVQSGAEVKKPGESLKISCKGSGYAFSNYLIEWVRQMPGKGLEWMGVINPGSGGTNYNEKFKGQVTISADKSISTAYLQWSSLKASDTAMYYCARWRGEGYYAYYDVWGQGTTVTVSS
VL: AIRLTQSPSSFSASTGDRVTITCKASQSVDYQGDSYMNWYQQKPGKAPKLLIYTASNLESGVPSRFSGSGSGTDFTLTISSLQSEDFATYYCQQSNEDPYTFGGGTKVEIKR
notes: VK A50T; HEK293F supernatant
B2: Antibody No: 32 (antibody, human IgG1, kappa, N297A, V domains shown)
VH: B1 VH with N59Y
VL: B1 VL with M37L, T54A
notes: VK M33L; HEK293F supernatant
B3: Antibody No: 27 (antibody, human IgG1, kappa, N297A, V domains shown)
VH: B1 VH with N59Y, Y108F
VL: B1 VL with M37L, T54A
notes: VH N58Y + T30S; VK M33L; HEK293F supernatant
B4: Antibody No: 34 (antibody, human IgG1, kappa, N297A, V domains shown)
VH: B1 VH with N59Y
VL: B1 VL
notes: VK A50T; HEK293F supernatant
B5: Antibody No: 25 (antibody, human IgG1, kappa, N297A, V domains shown)
VH: B1 VH
VL: B1 VL with M37L, T54S
notes: VK M33L + A50S; HEK293F supernatant
B6: Antibody No: 30 (antibody, human IgG1, kappa, N297A, V domains shown)
VH: B1 VH with N59Y, Y108F
VL: B1 VL with M37L, T54S
notes: VH N58Y + T30S; VK M33L + A50S; HEK293F supernatant
B7: Antibody No: 26 (antibody, human IgG1, kappa, N297A, V domains shown)
VH: B1 VH with N59Y, Y108F
VL: B1 VL with T54A
notes: VH N58Y + T30S; VK WT; HEK293F supernatant; 108929 is kept apart
B8: Antibody No: 29 (antibody, human IgG1, kappa, N297A, V domains shown)
VH: B1 VH with N59Y, Y108F
VL: B1 VL
notes: VH N58Y + T30S; VK A50T; HEK293F supernatant
B9: Antibody No: 31 (antibody, human IgG1, kappa, N297A, V domains shown)
VH: B1 VH with N59Y
VL: B1 VL with T54A
notes: VK WT; HEK293F supernatant
B10: Antibody No: 33 (antibody, human IgG1, kappa, N297A, V domains shown)
VH: B1 VH with N59Y
VL: B1 VL with T54S
notes: VK A50S; HEK293F supernatant
B11: Antibody No: 28 (antibody, human IgG1, kappa, N297A, V domains shown)
VH: B1 VH with N59Y, Y108F
VL: B1 VL with T54S
notes: VH N58Y + T30S; VK A50S; HEK293F supernatant; 108930 is kept apart
B12: Antibody No: 35 (antibody, human IgG1, kappa, N297A, V domains shown)
VH: B1 VH with N59Y
VL: B1 VL with M37L, T54S
notes: as for B5

target: T1, Proleukin® (aldesleukin) (human, UniProt P60568 21-153, limits assumed); assay: ELISA, coated Proleukin, HEK293F supernatant 1:2
T1 construct: Variant of human wt IL-2 with C145S (C125S on mature IL-2); also called IL-2 (Proleukin®); human IL-2 (Proleukin)
T1 sequence (P60568 other isoform, or with tags, fused parts or gaps limits assumed): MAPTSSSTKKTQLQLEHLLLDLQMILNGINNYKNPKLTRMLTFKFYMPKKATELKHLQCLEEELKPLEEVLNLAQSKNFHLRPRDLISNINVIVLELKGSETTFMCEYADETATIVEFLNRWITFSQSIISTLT
Experimental: Subsequently, hIL-2 binding efficiency of the antibodies present in the supernatants was determined using ELISA. In brief, ELISA plates (Maxisorp 96-well black microtiter plate) were coated overnight at 4° C. with 100p/well of Proleukin® (5 μg/ml PBS). ELISA plates were washed once with TBST (1×TBS/0.05% Tween 20) using a plate-washer (BioTek). […] After removal of the blocking buffer, plates were washed once with TBST using the plate washer. Supernatants were diluted 1:2 in blocking buffer and 50 μl transferred to the designated well of the ELISA plate. Each sample was present on three ELISA plates. The three plates were incubated at RT under gentle agitation. […] The other two plates were washed either every hour three times with TBST for 4 hours or washed every hour three times for 12 hours before adding the detection antibody. […] Luminescence signal was measured after 5 minutes incubation in the dark. […] All ELISA values are mean values based on two measurements.

ELISA value (Normal ELISA) [luminescence signal]	ELISA value (wash 3x every hour for 4 HRS) [luminescence signal]	ELISA value (wash 3x every hour for 12 HRS) [luminescence signal]	Binder
2770	1880	674	B1
7190	6210	3330	B2
7760	7000	2770	B3
3860	3080	1360	B4
3570	3050	1080	B5
14900	14400	2800	B6
4030	4210	1800	B7
6950	6850	2720	B8
11400	10300	3400	B9
3990	3570	1820	B10
18500	18100	5870	B11
4910	4040	1790	B12

target: T1, Proleukin® (aldesleukin); assay: ELISA, coated Proleukin, serially diluted supernatant

EC50 [nM]	Binder
0.59	B1
0.65	B2
0.39	B3
0.65	B4
0.42	B5
0.22	B6
0.49	B7
0.24	B8
0.39	B9
0.67	B10
0.16	B11
0.72	B12
